Source: patent US20140112919A1, “INTERLEUKIN-10 ANTIBODIES” (MERCK SHARP & DOHME CORP., published 2014)

Target: humanized anti-human IL-10 antibody SCH 708980 (12G8) (Homo sapiens)
Test: competitive ECLA (IGEN): unlabeled IL-10 titrated against hIL-10-biotin for binding to humanized 12G8-1
Protocol: 96 well Polypropylene plates (Costar, Cat. No. 3365, Fisher Sci. Cat. No. 07200697); assay buffer of 0.1% BSA, 0.05% tween 20, PBS pH 7.5; paramagnetic beads (Streptavidin-Dynabeads, Igen, Inc., Cat. No. 110029); recombinant human IL-10 dimer (hIL-10-dimer); recombinant human IL-10-monomer (hIL-10-mono); recombinant mouse IL-10 (mIL-10); recombinant cyno IL-10 (cyno IL-10); and recombinant hIL-10Ra (hIL-10Ra): FLAG-tagged protein. Ori-Tag labeled anti-FLAG M2 monoclonal antibodies were prepared using Ori-Tag-NHS ester (Igen, Inc. Cat. No. 110034) according to manufacturer's protocol (OriTag label: IgG challenge ratio 8:1). Anti-Flag M2 monoclonal antibodies were purchased from Sigma (Cat. No. F3165). Ori-Tag labeled anti hIgG 1A2 monoclonal antibodies were prepared as above using rat anti hIgG monoclonal antibodies. Ori-Tag labeled anti rat IgG antibodies were prepared as above from polyclonal Goat anti rat IgG (H+L) antibodies (Jackson Immunoresearch Laboratories, Inc. PA, Cat. No. 112-005-143). Biotinylated recombinant human IL-10
1/3 serial dilutions in 50 microliters of the assay buffer were made in 96-well microtiter plate for all unlabeled IL-10 preparations (mIL-10, cyno IL-10, hIL-10 dimer, hIL-10 mono) starting with 3 μg/ml in the first well. […] Percent inhibition of the signal by unlabeled IL-10 preparations was calculated relative to the control samples. […]

humanized anti-human IL-10 antibody SCH 708980 (12G8) (Homo sapiens), sequence (VH, as listed by the source, chain 1 of 2): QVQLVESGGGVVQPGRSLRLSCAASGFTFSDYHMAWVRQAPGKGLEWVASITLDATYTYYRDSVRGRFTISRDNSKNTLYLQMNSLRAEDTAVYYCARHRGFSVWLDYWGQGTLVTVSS
humanized anti-human IL-10 antibody SCH 708980 (12G8) (Homo sapiens), sequence (VL, as listed by the source, chain 2 of 2): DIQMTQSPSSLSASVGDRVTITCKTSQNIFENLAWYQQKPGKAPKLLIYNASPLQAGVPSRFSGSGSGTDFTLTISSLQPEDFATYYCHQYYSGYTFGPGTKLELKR

IC50: 5.8 nM
B1: recombinant human IL-10-monomer (ligand)
chain: SPGQGTQSENSCTHFPGNLPNMLRDLRDAFSRVKTFFQMKDQLDNLLLKESLLEDFKGYLGCQALSEMIQFYLEEVMPQAENQDPDIKAHVNSLGENLKTLRLRLRRCHRFLPCENKSKAVEQVKNAFNKLQEKGIYKAMSEFDIFINYIEAYMTMKIRN
